The record followed here is PMC7192624, “A Snu114–GTP–Prp8 module forms a relay station for efficient splicing in yeast” (Nucleic Acids Research, 2020).

Changes are numbered by the printed parent chain. In names and notes the source's numbering stands.

The chains are these.
B1: Prp8^SBR 402–406_5S (domain or fragment, yeast, UniProt P33334 315-555, looked up)
chain: STPLRDEVTDKNYYYLFDKKSFFNGKALNNAIPGGPKFEPLYPREEEEDYNEFNSIDRVIFRVPIRSEYKVAFPHLYNSRPRSVRIPSSSSSVSCIIQNDEEYDTPALFFDPSLNPIPHFIDNNSSLNVSNTKENGDFTLPEDFAPLLAEEEELILPNTKDAMSLYHSPFPFNRTKGKMVRAQDVALAKKWFLQHPDEEYPVKVKVSYQKLLKNYVLNELHPTLPTNHNKTKLLKSLKNTK
notes: also called Prp8^402–406_5S; source: insect cells, co-produced with Snu114; complex purified; not shown: Strep tag (from the vector pFL-N-Strep), N-terminal, kept
B2: Prp8^SBR Y403A (domain or fragment, yeast, UniProt P33334 315-555, looked up)
chain: B1 chain with S88W, S89A, S90N, S91N, S92P
notes: also called Prp8^Y403A; source: insect cells, co-produced with Snu114; complex purified; not shown: Strep tag (from the vector pFL-N-Strep), N-terminal, kept
B3: Prp8^SBR Y403F (domain or fragment, yeast, UniProt P33334 315-555, looked up)
chain: B1 chain with S88W, S89F, S90N, S91N, S92P
notes: also called Prp8^Y403F; source: insect cells, co-produced with Snu114; complex purified; not shown: Strep tag (from the vector pFL-N-Strep), N-terminal, kept
B4: Prp8^SBR WY402-403AA (domain or fragment)
chain: not shown
notes: also called Prp8^WY402/3AA; source: insect cells, co-produced with Snu114; complex purified; not shown: Strep tag (from the vector pFL-N-Strep), N-terminal, kept
B5: Prp8^SBR Δ421–468 (domain or fragment, yeast, UniProt P33334 315-555, looked up)
chain: STPLRDEVTDKNYYYLFDKKSFFNGKALNNAIPGGPKFEPLYPREEEEDYNEFNSIDRVIFRVPIRSEYKVAFPHLYNSRPRSVRIPWYNNPVSCIIQNDEEYDTPILPNTKDAMSLYHSPFPFNRTKGKMVRAQDVALAKKWFLQHPDEEYPVKVKVSYQKLLKNYVLNELHPTLPTNHNKTKLLKSLKNTK
notes: also called Prp8^Δ421–468; source: insect cells, co-produced with Snu114; complex purified; not shown: Strep tag (from the vector pFL-N-Strep), N-terminal, kept
B6: Prp8^SBR Δ402–406 (domain or fragment, yeast, UniProt P33334 315-555, looked up)
chain: STPLRDEVTDKNYYYLFDKKSFFNGKALNNAIPGGPKFEPLYPREEEEDYNEFNSIDRVIFRVPIRSEYKVAFPHLYNSRPRSVRIPVSCIIQNDEEYDTPALFFDPSLNPIPHFIDNNSSLNVSNTKENGDFTLPEDFAPLLAEEEELILPNTKDAMSLYHSPFPFNRTKGKMVRAQDVALAKKWFLQHPDEEYPVKVKVSYQKLLKNYVLNELHPTLPTNHNKTKLLKSLKNTK
notes: also called Prp8^Δ402–406; source: insect cells, co-produced with Snu114; complex purified; not shown: Strep tag (from the vector pFL-N-Strep), N-terminal, kept
B7: Aar2 (natural protein, yeast, UniProt P32357 1-355, looked up)
chain: MNTVPFTSAPIEVTIGIDQYSFNVKENQPFHGIKDIPIGHVHVIHFQHADNSSMRYGYWFDCRMGNFYIQYDPKDGLYKMMEERDGAKFENIVHNFKERQMMVSYPKIDEDDTWYNLTEFVQMDKIRKIVRKDENQFSYVDSSMTTVQENELLKSSLQKAGSKMEAKNEDDPAHSLNYTVINFKSREAIRPGHEMEDFLDKSYYLNTVMLQGIFKNSSNYFGELQFAFLNAMFFGNYGSSLQWHAMIELICSSATVPKHMLDKLDEILYYQIKTLPEQYSDILLNERVWNICLYSSFQKNSLHNTEKIMENKYPELLGKDNEDDALIYGISDEERDDEDDEHNPTIVGGLYYQRP
notes: Aar2, U5 snRNP assembly factor, yeast; synthetic gene; source: complex purified (StrepTactin, Heparin, Mono Q, SEC); not shown: Strep tag (from the vector pIDK-C-Strep), C-terminal, kept
B8: Snu114^72-1008 (yeast Snu114 lacking the acidic N-terminal region) (domain or fragment, UniProt P36048 72-1008, looked up)
chain: KEVEVLMETKNTQSPQTPLVEPVTERTKLQEHTIFTQLKKNIPKTRYNRDYMLSMANIPERIINVGVIGPLHSGKTSLMDLLVIDSHKRIPDMSKNVELGWKPLRYLDNLKQEIDRGLSIKLNGSTLLCTDLESKSRMINFLDAPGHVNFMDETAVALAASDLVLIVIDVVEGVTFVVEQLIKQSIKNNVAMCFVINKLDRLILDLKLPPMDAYLKLNHIIANINSFTKGNVFSPIDNNIIFASTKLGFTFTIKEFVSYYYAHSIPSSKIDDFTTRLWGSVYYHKGNFRTKPFENVEKYPTFVEFILIPLYKIFSYALSMEKDKLKNLLRSNFRVNLSQEALQYDPQPFLKHVLQLIFRQQTGLVDAITRCYQPFELFDNKTAHLSIPGKSTPEGTLWAHVLKTVDYGGAEWSLVRIYSGLLKRGDTVRILDTSQSESRQKRQLHDISKTETSNEDEDEDDETPSCEVEEIGLLGGRYVYPVHEAHKGQIVLIKGISSAYIKSATLYSVKSKEDMKQLKFFKPLDYITEAVFKIVLQPLLPRELPKLLDALNKISKYYPGVIIKVEESGEHVILGNGELYMDCLLYDLRASYAKIEIKISDPLTVFSESCSNESFASIPVSNSISRLGEENLPGLSISVAAEPMDSKMIQDLSRNTLGKGQNCLDIDGIMDNPRKLSKILRTEYGWDSLASRNVWSFYNGNVLINDTLPDEISPELLSKYKEQIIQGFYWAVKEGPLAEEPIYGVQYKLLSISVPSDVNIDVMKSQIIPLMKKACYVGLLTAIPILLEPIYEVDITVHAPLLPIVEELMKKRRGSRIYKTIKVAGTPLLEVRGQVPVIESAGFETDLRLSTNGLGMCQLYFWHKIWRKVPGDVLDKDAFIPKLKPAPINSLSRDFVMKTRRRKGISTGGFMSNDGPTLEKYISAELYAQLRENGLVP
notes: synthetic gene; Co-purifies with endogenous GTP; source: insect cells (MultiBac baculovirus); co-produced with Prp8 constructs or alone; purified (StrepTactin, SEC); not shown: Strep tag (from the vector pIDS-C-Strep), C-terminal, kept
B9: Prp8 residues 315-555 (Prp8^SBR), chymotryptic fragment (domain or fragment, yeast, UniProt P33334 315-555, looked up)
chain: B1 chain with S88W, S89Y, S90N, S91N, S92P

One test has as its target B8. As to the kind of experiment: SEC; two proteins co-produced in insect cells, both Strep-tagged; StrepTactin capture, then SEC on Superdex S200 in 10 mM TRIS-HCl pH 8.0, 300 mM NaCl, 2 mM DTT; co-purification of wt and variant complexes. Particulars: both partners purified. In general terms: SEC sorts molecules by how far they enter the pores of the column.
On to B1, for which the binding result was “binds”.
Same read-out and setting: next, B2: “binds”; B3: “binds”; B4: “binds”.
Still for that read-out and setting: then B5, with “binds”; and B6, with “binds”.

The target of the next test is T1, Prp8^132-2413 (large fragment of yeast Prp8 lacking the first 131 residues) (yeast, UniProt P33334 132-2413).
T1 construct: Prp8, yeast, residues 132-2413; synthetic gene; methods and results print 132-2413; source: complex purified (StrepTactin, Heparin, Mono Q, SEC); not shown: Strep tag (from the vector pFL-C-Strep), C-terminal, kept
As to the kind of experiment: SEC; three proteins co-produced in insect cells, all Strep-tagged; complex purified by StrepTactin, Heparin, Mono Q and SEC (Superose 6, 50 mM TRIS-HCl pH 8.5, 300 mM NaCl, 2 mM DTT); analytical gel filtration with SDS-PAGE of fractions. Particulars: both partners purified.
Regarding B7, the binding result is listed as “binds”.
Still for that read-out and setting: next, B8: “binds”.

The target of the next test is B8. Put plainly: SEC; limited proteolysis of the purified trimeric complex with chymotrypsin (room temperature, 35 min), then SEC on Superose 6 Increase in 20 mM TRIS-HCl pH 8.5, 500 mM NaCl, 2 mM DTT; fragments identified by mass spectrometric fingerprinting and N-terminal sequencing. The conditions noted are these: both partners purified.
Regarding B9, the binding result is recorded as “binds”.
